For series [1], the target named is T1, FtsZ C-terminal tail peptide C-terminal tail peptide (Escherichia coli, UniProt P0A9A6).
T1 chain: KEPDYLDIPAFLRKQAD
The series is described as follows: ITC.

Series [2] concerns the molecule itself. The series is described as follows: analytical ultracentrifugation (sedimentation velocity).

B1: ZapC (protein)
chain: not shown
Turning to B1, the Kd was 32 µM in series [1] and around 30 µM in series [2].

(Values after publication PMC4686002 (2015).)
